In US20250222029A1:

Target: HER2 (human epidermal growth factor receptor 2) (human) (UniProt P04626)
Experiment: cell-based or functional assay

Substance: CasMab250 (H/L)-based CAR with medium spacer (IgG4 hinge & CH3 domain) and CD28-CD3ζ1XX intracellular signaling domains
- maximal cytolysis of SKOV3 tumor cells (xCELLigence, E:T 1:1): 90%
